T1: Human ANGPTL4(26-161)-FLAG-His6-Avi (human, biotin on the C-terminal Avi tag (BirA) where the protein is immobilised)
T1 construct: also called human ANGPTL4 N-terminal coiled coil domain; hANGPTL4-CCD
T1 chain: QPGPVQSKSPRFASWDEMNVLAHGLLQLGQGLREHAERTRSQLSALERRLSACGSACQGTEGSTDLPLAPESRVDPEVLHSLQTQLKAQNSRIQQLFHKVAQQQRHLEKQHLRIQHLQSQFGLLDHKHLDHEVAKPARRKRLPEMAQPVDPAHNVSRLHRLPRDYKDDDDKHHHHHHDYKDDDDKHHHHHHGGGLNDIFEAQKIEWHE

T2: Human ANGPTL4(26-406)-FLAG-His6-Avi (human, UniProt Q9BY76 24-406, biotin on the C-terminal Avi tag (BirA) where the protein is immobilised)
T2 construct: the text calls it 20 amino acids), then QP, ANGPTL4 26-406 and FLAG-His6-Avi; the signal peptide is left out here; also called full length human ANGPTL4; hANGPTL4
T2 sequence: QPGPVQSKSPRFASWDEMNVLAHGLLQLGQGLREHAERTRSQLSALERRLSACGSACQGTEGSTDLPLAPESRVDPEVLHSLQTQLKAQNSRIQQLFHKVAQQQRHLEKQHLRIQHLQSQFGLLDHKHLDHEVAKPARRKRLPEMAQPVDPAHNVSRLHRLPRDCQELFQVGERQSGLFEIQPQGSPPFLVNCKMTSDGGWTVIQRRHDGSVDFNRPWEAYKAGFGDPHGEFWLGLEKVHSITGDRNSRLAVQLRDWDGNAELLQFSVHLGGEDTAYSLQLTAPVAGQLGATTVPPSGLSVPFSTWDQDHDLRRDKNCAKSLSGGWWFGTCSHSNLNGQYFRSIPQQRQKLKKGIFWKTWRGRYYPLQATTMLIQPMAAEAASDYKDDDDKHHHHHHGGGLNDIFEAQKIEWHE

T3: Cynomolgus monkey ANGPTL4(26-406)-FLAG-His6-Avi (cynomolgus monkey, biotin on the C-terminal Avi tag (BirA) where the protein is immobilised)
T3 construct: also called Cyno ANGPTL4 (26-406)
T3 chain: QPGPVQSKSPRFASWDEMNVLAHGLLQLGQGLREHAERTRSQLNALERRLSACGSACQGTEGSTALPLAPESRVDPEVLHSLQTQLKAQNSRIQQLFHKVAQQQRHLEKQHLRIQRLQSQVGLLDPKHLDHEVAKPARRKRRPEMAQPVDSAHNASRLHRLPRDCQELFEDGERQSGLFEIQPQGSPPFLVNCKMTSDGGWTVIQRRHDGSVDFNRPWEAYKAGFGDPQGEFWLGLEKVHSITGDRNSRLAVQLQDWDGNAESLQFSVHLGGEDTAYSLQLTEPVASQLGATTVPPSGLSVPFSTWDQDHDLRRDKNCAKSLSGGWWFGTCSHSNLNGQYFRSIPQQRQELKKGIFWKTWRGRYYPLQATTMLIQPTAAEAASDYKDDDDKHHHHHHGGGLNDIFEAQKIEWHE

T4: Human ANGPTL3(17-460)-FLAG-His-Avi (human, UniProt Q9Y5C1 17-460, biotin on the C-terminal Avi tag (BirA))
T4 construct: also called full length human ANGPTL3; hANGPTL3
T4 sequence: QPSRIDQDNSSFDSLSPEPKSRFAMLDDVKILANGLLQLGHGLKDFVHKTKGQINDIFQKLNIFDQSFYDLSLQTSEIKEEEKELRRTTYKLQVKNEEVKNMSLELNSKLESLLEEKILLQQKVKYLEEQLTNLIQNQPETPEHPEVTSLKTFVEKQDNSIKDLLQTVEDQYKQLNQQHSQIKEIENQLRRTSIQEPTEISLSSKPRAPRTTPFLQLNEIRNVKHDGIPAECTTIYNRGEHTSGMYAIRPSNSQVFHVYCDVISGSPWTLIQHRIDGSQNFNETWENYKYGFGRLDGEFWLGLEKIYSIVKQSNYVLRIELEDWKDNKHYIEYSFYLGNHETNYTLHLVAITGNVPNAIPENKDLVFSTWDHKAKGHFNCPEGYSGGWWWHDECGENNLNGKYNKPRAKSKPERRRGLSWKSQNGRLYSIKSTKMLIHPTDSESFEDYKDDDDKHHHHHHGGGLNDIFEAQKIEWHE

B1: NEG276-LALA (antibody, human IgG1, kappa, L234A L235A)
heavy: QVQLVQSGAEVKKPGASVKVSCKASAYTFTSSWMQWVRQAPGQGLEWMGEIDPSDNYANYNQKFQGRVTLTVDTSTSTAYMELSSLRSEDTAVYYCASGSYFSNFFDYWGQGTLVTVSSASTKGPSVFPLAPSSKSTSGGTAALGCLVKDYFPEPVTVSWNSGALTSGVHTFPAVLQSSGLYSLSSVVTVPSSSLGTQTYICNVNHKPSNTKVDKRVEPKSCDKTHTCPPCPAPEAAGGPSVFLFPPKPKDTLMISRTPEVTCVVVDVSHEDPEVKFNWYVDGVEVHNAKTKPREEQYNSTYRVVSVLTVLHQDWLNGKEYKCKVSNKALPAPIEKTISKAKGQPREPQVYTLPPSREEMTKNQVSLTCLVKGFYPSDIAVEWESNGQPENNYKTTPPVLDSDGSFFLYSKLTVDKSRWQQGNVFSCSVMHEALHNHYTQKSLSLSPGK
light: EIVMTQSPATLSVSPGERATLSCKASQDIGSNLNWLQQKPGQAPRRLIYAVSNRGPGIPARFSGSRSGSEYTLTISSLQSEDFAVYYCLQYASSPWTFGQGTKVEIKRTVAAPSVFIFPPSDEQLKSGTASVVCLLNNFYPREAKVQWKVDNALQSGNSQESVTEQDSKDSTYSLSSTLTLSKADYEKHKVYACEVTHQGLSSPVTKSFNRGEC
B2: NEG278 (antibody, human IgG1, kappa, V domains shown)
VH: QVQLVQSGAEVKKPGASVKVSCKASAYTFTSSWMQWVRQAPGQGLEWMGEIDPSDNYANYNQKFQGRVTLTVDTSTSTAYMELSSLRSEDTAVYYCASGSYFSNFFDYWGQGTLVTVSS
VL: EIVMTQSPATLSVSPGERATLSCKASQDIGSNLNWLQQKPGQAPRRLIYAASVREPGIPARFSGSRSGSEYTLTISSLQSEDFAVYYCLQYASSPWTFGQGTKVEIKR
notes: humanized, hIgG1/kappa, parental antibody 19C16

Tests used:
[1] = target: T1, Human ANGPTL4(26-161)-FLAG-His6-Avi; experiment: Octet (ForteBio) kinetics, biotinylated antigen on streptavidin sensor, IgG in solution; slower than the limit of detection
[2] = target: T2, Human ANGPTL4(26-406)-FLAG-His6-Avi; experiment: as above
[3] = target: T3, Cynomolgus monkey …; experiment: as above
[4] = target: T4, Human ANGPTL3(17-460)-FLAG-His-Avi; experiment: Octet (ForteBio) kinetics; average KD of the runs; no binding at 25 nM
[5] = target: T2, Human ANGPTL4(26-406)-FLAG-His6-Avi; experiment: Octet (ForteBio) kinetics, biotinylated antigen on streptavidin sensor, IgG in solution; upper limit by the footnote
Procedure: Dissociation constants (KD) were determined for selected antibodies of the invention by using an Octet (ForteBio) kinetic binding assay. ForteBio 10× Kinetics Buffer (ForteBio, catalog number 18-5032) was diluted 10-fold with DPBS (Life Technologies, catalog number 14190-136), and the resulting solution was added (0.2 ml per well) to a 96-well plate (Greiner, catalog number 65520). Streptavidin sensors (ForteBio, catalog number 18-5020) were immersed in the solution and equilibrated for at least 10 min at room temperature. In a second 96-well plate (Greiner, catalog number 65520), sensors were washed in 1× Kinetics buffer, and then immersed in 200 ul of 25 nM biotinylated human ANGPTL4 or a biotinylated reference protein (for background subtraction) for 1000 sec at […] room temperature. […] The sensors were then transferred to a well containing 200 μl 1× Kinetics buffer, and antibody dissociation was monitored for 1200 seconds. Background-corrected association and dissociation curves were globally fitted by Octet Software (ForteBio) to generate association (kₐ) and dissociation (kd) rate constants, which in turn were used to calculate equilibrium dissociation constants (KD).

| Binder | koff [1] [s⁻¹] | koff [2] [s⁻¹] | koff [3] [s⁻¹] | Kd [4] [nM] | Kd [5] [nM] |
| --- | --- | --- | --- | --- | --- |
| B1 | 3.1e-06 | 4.9e-07 | 4.1e-06 | > 6 |  |
| B2 |  |  |  |  | ≤ 0.017 |

From patent publication US20220213181A1 (Novartis, published 2022)
